The values below come from article PMC3658134.

[ ]: non-standard residue; d: D form. Sec = N[C@@H](C[SeH])C(=O)O

Substrate in this data set: O=C1NC(=O)C(=O)C(=O)N1
The data set is described as follows: Substrate specificity, NADPH consumption, wild-type TGR. The data set is classed as biochemical, Schistosoma mansoni. The following applies: pH 7.4; 25.0 °C.

B1: wild-type TGR (SmTGR) (Schistosoma mansoni) (protein)
chain: MPPADGTSQWLRKTVDSAAVILFSKTTCPYCKKVKDVLAEAKIKHATIELDQLSNGSAIQKCLASFSKIETVPQMFVRGKFIGDSQTVLKYYSNDELAGIVNESKYDYDLIVIGGGSGGLAAGKEAAKYGAKTAVLDYVEPTPIGTTWGLGGTCVNVGCIPKKLMHQAGLLSHALEDAEHFGWSLDRSKISHNWSTMVEGVQSHIGSLNWGYKVALRDNQVTYLNAKGRLISPHEVQITDKNQKVSTITGNKIILATGERPKYPEIPGAVEYGITSDDLFSLPYFPGKTLVIGASYVALECAGFLASLGGDVTVMVRSILLRGFDQQMAEKVGDYMENHGVKFAKLCVPDEIKQLKVVDTENNKPGLLLVKGHYTDGKKFEEEFETVIFAVGREPQLSKVLCETVGVKLDKNGRVVCTDDEQTTVSNVYAIGDINAGKPQLTPVAIQAGRYLARRLFAGATELTDYSNVATTVFTPLEYGACGLSEEDAIEKYGDKDIEVYHSNFKPLEWTVAHREDNVCYMKLVCRKSDNMRVLGLHVLGPNAGEITQGYAVAIKMGATKADFDRTIGIHPTCSETFTTLHVTKKSGVSPIVSGC[Sec]G
modifications: not fully specified
On to B1, for which the Km was 940 ± 90 µM and the kcat is 27.7 ± 0.8 s⁻¹.

Usually Km stands for the substrate concentration at which the rate is half of its maximum. As usually defined, the kcat is the number of substrate molecules converted per active site and unit of time at saturation.
